Test results published in PMC5880276.

Target: HpiC1
Assay: crystal structure

Work on HpiC1 (enzyme) yielded a stoichiometry N of 2.
